Source: US20260116991A1 (HAINAN SIMCERE ZAIMING PHARMACEUTICAL, published 2026)
Positions count from the first letter of the chain named.

B1: F1.110.24 (antibody, human IgG1, kappa, V domains shown)
VH: EVKLVESGGGLVQPGGSLKLSCAASGFTFSDFYMYWVRQTPEKRLEWVAFISNGGGSTYYPDTVKGRFTISRDNVKNTLYLQMSRLKSEDTAMYYCARPDTSWFAYWGQGSLVTVSA
VL: DIQMTQTTSSLSASLGDRVTISCRASQDIDNYLNWYQQKPDGTVKVLISYTSRLHSGVPSRFSGSGSGTDYSLTISNLEQEDIATYFCQQGNTLPWTFGGGTKLEIKR
notes: Human-murine chimeric antibody
B2: F1.92.17 (antibody, human IgG1, kappa, V domains shown)
VH: EVQLQQSGPELVKPGASVKMSCKASGYTFTDYNMHWVRQSHGKSLEWIGYINPNNGDTIYNQNFKGKATLTVNKSSSTAYMELRSLTSEDSAVYYCSRTITYYYSMDYWGPGTSVTVSS
VL: QIVLTQSPALMSASPGEKVTMTCSASSSVSYMYWYQQKPRSSPKPWIYLTSNLASGVPARFSGSGSGTSYSLTISSMEAEDAATYYCQQWSSNPLTFGAGTKLELKR
notes: as for B1
B3: F1.41.17 (antibody, human IgG1, kappa, V domains shown)
VH: EVQLVESGGDSVKPGGSLKLSCAASGFTFSSYGMSWVRQTPDKRLEWVATINSGGSYTYYQDSVKGRFTISRDNAKNTLYLQMSSLKSEDTAIYYCVRHHYGSSYDYFDYWGQGTTLTVSS
VL: DIVMTQAAPSVPVMPGESVSISCRSSKSLLHSNGNTHLYWFLQRPGQSPQLLIYRMSNLASGVPDRFSGSGSGTAFTLRISRVEAEDVGVYYCMQHLEYPLTFGAGTKLELKR
notes: as for B1
B4: F1.2.14 (antibody, human IgG1, kappa, V domains shown)
VH: RVQLQQSGAELVKPGASVRMSCKASGYTFTAYSIEWMKQNLGKSLEWIGNFRPYNDDTKYNENFKGRATLTVEKSSATVYLELSRLTSDDSAVYYCARSGPTDYFDYWGQGTTLIVSS
VL: DIQMTQSPASLSASVGETVTITCRASDNIYSYLAWYQQKQGQSPQLLVYNAKTLAEGVPSRFSGSGSVTQFSLKIISLQPEDFGTYYCQHHFGTPRTFGGGTKLEIKR
notes: as for B1
B5: F1.57.21 (antibody, human IgG1, kappa, V domains shown)
VH: QVQLQQSGAELARPGASVKLSCKASGYTFTSYGISWVKQITGQGLEWIGEIYPRSESTYYNEKFKGKATLTADKSSSTAYMELRSLTSEDSAVYFCARDYGNIYSFAYWGQGTLVTVSA
VL: B4 VL with A25T, D27E, Q42K, V68G, I76N, T85S, F92Y, R96L, G100A, I106L
notes: as for B1
B6: F1.78.24 (antibody, human IgG1, kappa, V domains shown)
VH: QVQLQQSGAELVKPGASVKMSCKASGYTFTTYPIEWMKQNHGKSLEWIGNFHPYNDDTNYNVKFKGKATLTVEKSSSTVYLELSRLTSDDSALYYCARRREYYGSFDVWGTGTTVTVSS
VL: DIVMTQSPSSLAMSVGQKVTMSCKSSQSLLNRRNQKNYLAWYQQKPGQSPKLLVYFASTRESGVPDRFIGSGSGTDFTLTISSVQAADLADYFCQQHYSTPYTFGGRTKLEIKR
notes: as for B1
B7: F1.21.8 (antibody, human IgG1, kappa, V domains shown)
VH: EVQLQQSGPELVKPGASVKISCKTSGFLFTGHYMHWVKSSHGNILDWIGYIYPYNAISFYNQKFKGKATLTVDKSSNTAYMELRSLTSEDSAVYYCARGDYGNYVTAYWGQGTLVTVSA
VL: DVLMTQTPLSLPVSLGDQASISCRSSQSIVHSSGNTYLEWYLQKPGQSPKLLIYKVSNRFSGVPDRFSGSGSGTDFTLKISRVEAEDLGVYYCFQGSHLPWTFGGGTKLDIKR
notes: as for B1
B8: F2.169.2 (antibody, human IgG1, kappa, V domains shown)
VH: EVQLVETGGGLVQPKGSLKLSCAASGFSFNTNAMNWVRQAPGKGLEWVARIRSKSNNYATYYADSVKDRFTISRDDSQSMLYLQMNNLKTEDTAMYYCVRDGYYVLFAYWGQGTLVTVSA
VL: B7 VL with S25F, H31N, S33N, Y41F, L99V, W101F, G105T, D110E
notes: as for B1
B9: F1.83.6 (antibody, human IgG1, kappa, V domains shown)
VH: QVQLQQSGPELVKPGASVKISCKASGYAFSSSWMNWVKQRPGKGLEWIGRIYPGDGDTNYNGRFKGKATLTVDKSSSTAYMQLSSLTSEDSAVYFCARGGVFTMALDHWGQGTTLTVSS
VL: DIQMTQSPSSLSASLGGKVTITCKASQDINKYIAWYQHKPGKGPRLLIHYTSTLQPGIPSRFSGSGSGRDYSFSISNLEPEDIATYYCLQYDNLFTFGGGTKLEIKR
notes: as for B1

Tests used:
monkey GPC3-His protein [1] = target: T1, monkey GPC3-His protein (monkey); experiment: ELISA, monkey GPC3-His coated;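 further: Plate-coated antigen at 1 µg/mL, antibody binding 2 h at 37 °C, detected with HRP-labeled secondary antibody and TMB, absorbance at 450 nm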
T1 construct: Bought recombinant protein; also called monkey GPC3 protein

human GPC3-His protein = target: T2, human GPC3-His protein (human, UniProt P51654 25-559); experiment: SPR, antibody captured on Protein A chip, human GPC3-His analyte;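 further: measured at 25 °C flow cell, human GPC3-His injected at five concentrations up to 200 nM, 240 s association, up to 600 s dissociation, double-referenced, fitted to Langmuir 1:1 model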
T2 construct: also called human GPC3 protein; not shown: His tag

[2] = target: T3, monkey GPC3 on HEK293T-monkey GPC3 cells (monkey); experiment: FACS on HEK293T-monkey GPC3 cells;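 further: flow cytometry binding of test antibodies to the cells, read as mean fluorescence intensity, with half-maximal concentration taken from fitted curves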
T3 construct: whole, on cells

monkey GPC3-His protein [3] = target: T1, monkey GPC3-His protein; experiment: SPR, antibody captured on Protein A chip, monkey GPC3-His analyte;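 further: run at 25 °C with 240 s association and up to 600 s dissociation, double-referenced, kinetics fitted to a 1:1 Langmuir binding model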
Description: The flow cell was set at 25° C. The sample block was set at 16° C. Both were pretreated with the running buffer. In each cycle, first, the antibody to be tested was captured using the Protein A chip, and then a single concentration of GPC3 antigen protein was injected. […] The association was determined by injecting different concentrations of human GPC3-His in the solution and maintaining for 240 s, wherein the flow rate was 30 μL/min, and the protein was diluted at a 1:1 dilution ratio from 200 nM to obtain 5 concentrations in total. The dissociation phase was monitored for up to 600 s and triggered by switching from the sample solution to the running buffer. The surface was regenerated by washing with 10 mM glycine solution (pH 1.5) at a flow rate of 30 μL/min for 30 s. The difference in bulk refractive index was corrected by subtracting the responses obtained from the goat anti-human Fc surface. Blank injections (double reference) were also subtracted. To calculate the apparent KD and other kinetic parameters, the Langmuir 1:1 model was used.

Binder | OD450 at 0.0001 nM (monkey GPC3-His protein [1]) | OD450 at 0.001 nM (monkey GPC3-His protein [1]) | OD450 at 0.01 nM (monkey GPC3-His protein [1]) | OD450 at 0.1 nM (monkey GPC3-His protein [1]) | OD450 at 1 nM (monkey GPC3-His protein [1]) | OD450 at 10 nM (monkey GPC3-His protein [1]) | OD450 at 100 nM (monkey GPC3-His protein [1]) | Kd (human GPC3-His protein) | koff (human GPC3-His protein) | kon (human GPC3-His protein) | EC50 [2] | Max MFI [2] | Kd (monkey GPC3-His protein [3]) | koff (monkey GPC3-His protein [3]) | kon (monkey GPC3-His protein [3])
B1 | 0.05 OD450 | 0.05 OD450 | 0.06 OD450 | 0.29 OD450 | 0.31 OD450 | 0.47 OD450 | 0.41 OD450 | 2.5 nM | 0.000362 s⁻¹ | 145000 M⁻¹ s⁻¹ | 0.42 nM | 5560 MFI | 1.38 nM | 0.000342 s⁻¹ | 248000 M⁻¹ s⁻¹
B2 | 0.05 OD450 | 0.05 OD450 | 0.06 OD450 | 0.15 OD450 | 0.64 OD450 | 0.62 OD450 | 0.58 OD450 | 7.46 nM | 0.00017 s⁻¹ | 22800 M⁻¹ s⁻¹ | 2.26 nM | 5520 MFI | 5.07 nM | 0.000139 s⁻¹ | 27400 M⁻¹ s⁻¹
B3 | 0.05 OD450 | 0.06 OD450 | 0.11 OD450 | 0.46 OD450 | 0.83 OD450 | 0.81 OD450 | 1.24 OD450 | 7.91 nM | 0.0021 s⁻¹ | 265000 M⁻¹ s⁻¹ | 0.23 nM | 6210 MFI | 4.42 nM | 0.00213 s⁻¹ | 482000 M⁻¹ s⁻¹
B4 | 0.05 OD450 | 0.05 OD450 | 0.07 OD450 | 0.27 OD450 | 0.86 OD450 | 1.03 OD450 | 1.55 OD450 | 2.37 nM | 0.00017 s⁻¹ | 71600 M⁻¹ s⁻¹ | 1.1 nM | 4740 MFI | 1.25 nM | 0.000156 s⁻¹ | 125000 M⁻¹ s⁻¹
B5 | 0.05 OD450 | 0.06 OD450 | 0.14 OD450 | 0.77 OD450 | 1.68 OD450 | 2.15 OD450 | 2.3 OD450 | 21.3 nM | 0.00278 s⁻¹ | 131000 M⁻¹ s⁻¹ | 0.77 nM | 5380 MFI | 13 nM | 0.00306 s⁻¹ | 236000 M⁻¹ s⁻¹
B6 | 0.05 OD450 | 0.06 OD450 | 0.17 OD450 | 0.55 OD450 | 0.73 OD450 | 0.21 OD450 | 0.37 OD450 | 7.06 nM | 0.00075 s⁻¹ | 106000 M⁻¹ s⁻¹ | 0.33 nM | 6580 MFI | 3.26 nM | 0.000639 s⁻¹ | 196000 M⁻¹ s⁻¹
B7 | 0.05 OD450 | 0.06 OD450 | 0.12 OD450 | 0.51 OD450 | 1 OD450 | 1.11 OD450 | 1.49 OD450 | 0.271 nM | 6.91e-05 s⁻¹ | 255000 M⁻¹ s⁻¹ | 0.29 nM | 6320 MFI | 0.1 nM | 4.65e-05 s⁻¹ | 464000 M⁻¹ s⁻¹
B8 | 0.05 OD450 | 0.07 OD450 | 0.27 OD450 | 1.36 OD450 | 2.27 OD450 | 2.64 OD450 | 1.99 OD450 | – | – | – | 0.51 nM | 9880 MFI | – | – | –
B9 | 0.05 OD450 | 0.05 OD450 | 0.08 OD450 | 0.43 OD450 | 0.62 OD450 | 0.32 OD450 | 0.55 OD450 | 5.88 nM | 0.000493 s⁻¹ | 83900 M⁻¹ s⁻¹ | 0.53 nM | 5880 MFI | 3.4 nM | 0.000503 s⁻¹ | 148000 M⁻¹ s⁻¹
